The text below walks through data of US20190048049A1 (CERENIS THERAPEUTICS, published 2019).

The experiment deals with T1, ApoA-I (human, UniProt P02647 25-267).
T1 construct: Stands in Cargomers as a monomer or multimer (1-8 molecules); also called apolipoprotein A-I; ApoA1
The experiment is described as follows: size exclusion chromatography of ApoA-I:M30 Cargomers, with increased temperature. A general note: SEC sorts molecules by how far they enter the pores of the column.

Ends that are not written are not given here.

T1 sequence (P02647 25-267 limits assumed): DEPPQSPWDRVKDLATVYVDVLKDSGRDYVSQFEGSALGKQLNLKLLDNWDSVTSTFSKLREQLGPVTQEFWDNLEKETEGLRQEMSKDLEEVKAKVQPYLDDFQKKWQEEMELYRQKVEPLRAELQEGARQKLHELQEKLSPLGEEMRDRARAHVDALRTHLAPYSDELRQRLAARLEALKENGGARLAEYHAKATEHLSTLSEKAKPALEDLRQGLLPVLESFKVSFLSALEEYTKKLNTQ

B1: M30 tumor antigen peptide coupled to PDP-PE lipid (peptide)
peptide: CSSVDWENVSPELNSTDQ
modifications: also: reacted with PDP-PE lipid, residue of attachment not given here
notes: Lipid-anchored peptide cargo of ApoA-I Cargomers (ApoA-I:TA molar ratios 1:2 and 1:4); also called TA peptide M30
Take B1: the binding result is “binds”.
